Source: IntAct's records for PubMed 30126976

B1: FERM and PDZ domain-containing protein 4 (Homo sapiens), Q14CM0 (parent)
chain: MDVFSFVKIAKLSSHRTKSSGWPPPSGTWGLSQVPPYGWEMTANRDGRDYFINHMTQAIPFDDPRLESCQIIPPAPRKVEMRRDPVLGFGFVAGSEKPVVVRSVTPGGPSEGKLIPGDQIVMINDEPVSAAPRERVIDLVRSCKESILLTVIQPYPSPKSAFISAAKKARLKSNPVKVRFSEEVIINGQVSETVKDNSLLFMPNVLKVYLENGQTKSFRFDCSTSIKDVILTLQEKLSIKGIEHFSLMLEQRTEGAGTKLLLLHEQETLTQVTQRPSSHKMRCLFRISFVPKDPIDLLRRDPVAFEYLYVQSCNDVVQERFGPELKYDIALRLAALQMYIATVTTKQTQKISLKYIEKEWGLETFLPSAVLQSMKEKNIKKALSHLVKANQNLVPPGKKLSALQAKVHYLKFLSDLRLYGGRVFKATLVQAEKRSEVTLLVGPRYGISHVINTKTNLVALLADFSHVNRIEMFSEEESLVRVELHVLDVKPITLLMESSDAMNLACLTAGYYRLLVDSRRSIFNMANKKNTATQETGPENKGKHNLLGPDWNCIPQMTTFIGEGEQEAQITYIDSKQKTVEITDSTMCPKEHRHLYIDNAYSSDGLNQQLSQPGEAPCEADYRSLAQRSLLTLSGPETLKKAQESPRGAKVSFIFGDFALDDGISPPTLGYETLLDEGPEMLEKQRNLYIGSANDMKGLDLTPEAEGIQFVENSVYANIGDVKSFQAAEGIEEPLLHDICYAENTDDAEDEDEVSCEEDLVVGEMNQPAILNLSGSSDDIIDLTSLPPPEGDDNEDDFLLRSLNMAIAAPPPGFRDSSDEEDSQSQAASFPEDKEKGSSLQNDEIPVSLIDAVPTSAEGKCEKGLDNAVVSTLGALEALSVSEEQQTSDNSGVAILRAYSPESSSDSGNETNSSEMTESSELATAQKQSENLSRMFLATHEGYHPLAEEQTEFPASKTPAGGLPPKSSHALAARPATDLPPKVVPSKQLLHSDHMEMEPETMETKSVTDYFSKLHMGSVAYSCTSKRKSKLADGEGKAPPNGNTTGKKQQGTKTAEMEEEASGKFGTVSSRDSQHLSTFNLERTAFRKDSQRWYVATEGGMAEKSGLEAATGKTFPRASGLGAREAEGKEEGAPDGETSDGSGLGQGDRFLTDVTCASSAKDLDNPEDADSSTCDHPSKLPEADESVARLCDYHLAKRMSSLQSEGHFSLQSSQGSSVDAGCGTGSSGSACATPVESPLCPSLGKHLIPDASGKGVNYIPSEERAPGLPNHGATFKELHPQTEGMCPRMTVPALHTAINTEPLFGTLRDGCHRLPKIKETTV
B2: Guanylate cyclase soluble subunit alpha-2 (Homo sapiens), P33402 (parent)
chain: MSRRKISSESFSSLGSDYLETSPEEEGECPLSRLCWNGSRSPPGPLEPSPAAAAAAAAPAPTPAASAAAAAATAGARRVQRRRRVNLDSLGESISRLTAPSPQTIQQTLKRTLQYYEHQVIGYRDAEKNFHNISNRCSYADHSNKEEIEDVSGILQCTANILGLKFEEIQKRFGEEFFNICFHENERVLRAVGGTLQDFFNGFDALLEHIRTSFGKQATLESPSFLCKELPEGTLMLHYFHPHHIVGFAMLGMIKAAGKKIYRLDVEVEQVANEKLCSDVSNPGNCSCLTFLIKECENTNIMKNLPQGTSQVPADLRISINTFCRAFPFHLMFDPSMSVLQLGEGLRKQLRCDTHKVLKFEDCFEIVSPKVNATFERVLLRLSTPFVIRTKPEASGSENKDKVMEVKGQMIHVPESNSILFLGSPCVDKLDELMGRGLHLSDIPIHDATRDVILVGEQAKAQDGLKKRMDKLKATLERTHQALEEEKKKTVDLLYSIFPGDVAQQLWQGQQVQARKFDDVTMLFSDIVGFTAICAQCTPMQVISMLNELYTRFDHQCGFLDIYKVETIGDAYCVAAGLHRKSLCHAKPIALMALKMMELSEEVLTPDGRPIQMRIGIHSGSVLAGVVGVRMPRYCLFGNNVTLASKFESGSHPRRINVSPTTYQLLKREESFTFIPRSREELPDNFPKEIPGICYFLEVRTGPKPPKPSLSSSRIKKVSYNIGTMFLRETSL
B3: Plasma membrane calcium-transporting ATPase 2 (Homo sapiens), Q01814 (parent)
chain: MGDMTNSDFYSKNQRNESSHGGEFGCTMEELRSLMELRGTEAVVKIKETYGDTEAICRRLKTSPVEGLPGTAPDLEKRKQIFGQNFIPPKKPKTFLQLVWEALQDVTLIILEIAAIISLGLSFYHPPGEGNEGCATAQGGAEDEGEAEAGWIEGAAILLSVICVVLVTAFNDWSKEKQFRGLQSRIEQEQKFTVVRAGQVVQIPVAEIVVGDIAQVKYGDLLPADGLFIQGNDLKIDESSLTGESDQVRKSVDKDPMLLSGTHVMEGSGRMLVTAVGVNSQTGIIFTLLGAGGEEEEKKDKKGVKKGDGLQLPAADGAAASNAADSANASLVNGKMQDGNVDASQSKAKQQDGAAAMEMQPLKSAEGGDADDRKKASMHKKEKSVLQGKLTKLAVQIGKAGLVMSAITVIILVLYFTVDTFVVNKKPWLPECTPVYVQYFVKFFIIGVTVLVVAVPEGLPLAVTISLAYSVKKMMKDNNLVRHLDACETMGNATAICSDKTGTLTTNRMTVVQAYVGDVHYKEIPDPSSINTKTMELLINAIAINSAYTTKILPPEKEGALPRQVGNKTECGLLGFVLDLKQDYEPVRSQMPEEKLYKVYTFNSVRKSMSTVIKLPDESFRMYSKGASEIVLKKCCKILNGAGEPRVFRPRDRDEMVKKVIEPMACDGLRTICVAYRDFPSSPEPDWDNENDILNELTCICVVGIEDPVRPEVPEAIRKCQRAGITVRMVTGDNINTARAIAIKCGIIHPGEDFLCLEGKEFNRRIRNEKGEIEQERIDKIWPKLRVLARSSPTDKHTLVKGIIDSTHTEQRQVVAVTGDGTNDGPALKKADVGFAMGIAGTDVAKEASDIILTDDNFSSIVKAVMWGRNVYDSISKFLQFQLTVNVVAVIVAFTGACITQDSPLKAVQMLWVNLIMDTFASLALATEPPTETLLLRKPYGRNKPLISRTMMKNILGHAVYQLALIFTLLFVGEKMFQIDSGRNAPLHSPPSEHYTIIFNTFVMMQLFNEINARKIHGERNVFDGIFRNPIFCTIVLGTFAIQIVIVQFGGKPFSCSPLQLDQWMWCIFIGLGELVWGQVIATIPTSRLKFLKEAGRLTQKEEIPEEELNEDVEEIDHAERELRRGQILWFRGLNRIQTQIRVVKAFRSSLYEGLEKPESRTSIHNFMAHPEFRIEDSQPHIPLIDDTDLEEDAALKQNSSPPSSLNKNNSAIDSGINLTTDTSKSATSSSPGSPIHSLETSL
B4: Mitogen-activated protein kinase 12 (Homo sapiens), P53778 (parent)
chain: MSSPPPARSGFYRQEVTKTAWEVRAVYRDLQPVGSGAYGAVCSAVDGRTGAKVAIKKLYRPFQSELFAKRAYRELRLLKHMRHENVIGLLDVFTPDETLDDFTDFYLVMPFMGTDLGKLMKHEKLGEDRIQFLVYQMLKGLRYIHAAGIIHRDLKPGNLAVNEDCELKILDFGLARQADSEMTGYVVTRWYRAPEVILNWMRYTQTVDIWSVGCIMAEMITGKTLFKGSDHLDQLKEIMKVTGTPPAEFVQRLQSDEAKNYMKGLPELEKKDFASILTNASPLAVNLLEKMLVLDAEQRVTAGEALAHPYFESLHDTEDEPQVQKYDDSFDDVDRTLDEWKRVTYKEVLSFKPPRQLGARVSKETPL

Variants of: B1
Details: with scrib_human SCRIB
Target sequence in this assay (Q14160 whole entry): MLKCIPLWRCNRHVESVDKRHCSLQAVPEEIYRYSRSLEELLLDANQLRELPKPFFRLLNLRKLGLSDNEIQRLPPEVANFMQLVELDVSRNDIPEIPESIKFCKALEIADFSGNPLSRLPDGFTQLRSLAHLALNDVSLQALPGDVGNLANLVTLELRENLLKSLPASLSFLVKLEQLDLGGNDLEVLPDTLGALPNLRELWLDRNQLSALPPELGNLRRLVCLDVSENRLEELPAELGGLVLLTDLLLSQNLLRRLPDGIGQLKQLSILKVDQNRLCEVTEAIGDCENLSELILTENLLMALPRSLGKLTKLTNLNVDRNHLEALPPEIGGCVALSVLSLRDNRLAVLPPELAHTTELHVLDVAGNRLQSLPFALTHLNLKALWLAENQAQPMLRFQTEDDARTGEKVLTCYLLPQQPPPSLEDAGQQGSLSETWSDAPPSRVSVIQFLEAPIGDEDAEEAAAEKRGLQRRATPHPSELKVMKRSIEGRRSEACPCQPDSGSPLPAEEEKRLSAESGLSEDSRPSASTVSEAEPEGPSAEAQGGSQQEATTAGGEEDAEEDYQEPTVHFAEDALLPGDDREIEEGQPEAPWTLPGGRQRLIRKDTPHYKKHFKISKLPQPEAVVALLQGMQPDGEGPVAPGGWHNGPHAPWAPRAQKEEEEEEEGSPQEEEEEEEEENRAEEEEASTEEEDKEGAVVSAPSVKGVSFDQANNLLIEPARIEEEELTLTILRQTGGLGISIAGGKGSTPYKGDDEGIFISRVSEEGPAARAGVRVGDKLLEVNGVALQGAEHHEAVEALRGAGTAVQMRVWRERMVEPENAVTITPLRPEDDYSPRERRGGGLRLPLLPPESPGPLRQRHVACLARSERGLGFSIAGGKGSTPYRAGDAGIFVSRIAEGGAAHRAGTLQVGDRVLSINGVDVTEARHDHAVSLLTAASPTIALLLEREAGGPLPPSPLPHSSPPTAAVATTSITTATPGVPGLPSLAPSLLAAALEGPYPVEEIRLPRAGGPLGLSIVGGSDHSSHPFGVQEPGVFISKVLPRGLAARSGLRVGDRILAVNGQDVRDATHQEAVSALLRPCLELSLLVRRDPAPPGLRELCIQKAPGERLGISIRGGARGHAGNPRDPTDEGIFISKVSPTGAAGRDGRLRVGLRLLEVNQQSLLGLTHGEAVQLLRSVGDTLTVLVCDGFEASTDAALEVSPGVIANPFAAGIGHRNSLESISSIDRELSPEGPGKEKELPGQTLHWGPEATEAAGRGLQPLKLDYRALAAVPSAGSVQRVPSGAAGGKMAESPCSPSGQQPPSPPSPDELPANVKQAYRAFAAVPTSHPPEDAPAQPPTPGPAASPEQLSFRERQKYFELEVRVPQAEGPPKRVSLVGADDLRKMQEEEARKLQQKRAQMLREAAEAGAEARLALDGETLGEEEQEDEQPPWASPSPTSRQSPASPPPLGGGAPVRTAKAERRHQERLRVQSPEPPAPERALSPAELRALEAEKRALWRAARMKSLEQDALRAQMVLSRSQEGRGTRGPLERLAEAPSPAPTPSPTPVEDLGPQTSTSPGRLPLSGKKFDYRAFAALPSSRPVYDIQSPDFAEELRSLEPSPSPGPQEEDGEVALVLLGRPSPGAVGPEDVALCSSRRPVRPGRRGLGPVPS

effect of a mutation on the interaction | Variant
disrupting interaction strength | T1320E

Variants of: B1
Details: with dlg1_human DLG1, Q12959
Target sequence in this assay (Q12959 whole entry, looked up): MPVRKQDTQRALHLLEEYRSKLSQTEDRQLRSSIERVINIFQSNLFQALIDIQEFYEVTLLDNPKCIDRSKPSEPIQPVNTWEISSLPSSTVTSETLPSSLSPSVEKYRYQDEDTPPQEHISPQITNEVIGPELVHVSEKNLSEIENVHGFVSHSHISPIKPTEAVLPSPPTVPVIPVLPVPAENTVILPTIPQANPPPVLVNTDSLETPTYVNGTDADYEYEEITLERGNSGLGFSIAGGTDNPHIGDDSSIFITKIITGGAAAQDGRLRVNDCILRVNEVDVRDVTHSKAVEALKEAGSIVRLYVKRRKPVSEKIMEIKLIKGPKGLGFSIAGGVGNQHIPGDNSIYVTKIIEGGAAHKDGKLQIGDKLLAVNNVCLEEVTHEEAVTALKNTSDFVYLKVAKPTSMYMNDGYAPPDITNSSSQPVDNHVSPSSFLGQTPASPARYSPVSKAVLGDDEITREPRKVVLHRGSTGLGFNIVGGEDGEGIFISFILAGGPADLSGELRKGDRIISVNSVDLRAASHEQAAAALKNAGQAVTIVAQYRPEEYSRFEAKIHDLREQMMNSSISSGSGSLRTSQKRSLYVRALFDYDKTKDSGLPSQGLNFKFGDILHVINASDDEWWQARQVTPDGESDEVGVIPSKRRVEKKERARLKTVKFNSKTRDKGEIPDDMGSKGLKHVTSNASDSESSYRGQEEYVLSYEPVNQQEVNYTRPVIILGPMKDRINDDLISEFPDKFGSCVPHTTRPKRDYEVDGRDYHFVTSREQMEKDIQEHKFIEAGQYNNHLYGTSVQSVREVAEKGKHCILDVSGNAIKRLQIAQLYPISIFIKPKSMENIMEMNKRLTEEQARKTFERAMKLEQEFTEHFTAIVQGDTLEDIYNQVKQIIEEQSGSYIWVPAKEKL

effect of a mutation on the interaction | Variant
disrupting interaction strength | T1320E

Variants of: B2
Details: with scrib_human SCRIB
Target sequence in this assay (Q14160 whole entry): as the sequence (Q14160 whole entry) above

effect of a mutation on the interaction | Variant
increasing interaction strength | S731E

Variants of: B3
Details: with scrib_human SCRIB
Target sequence in this assay (Q14160 whole entry): as above

effect of a mutation on the interaction | Variant
decreasing interaction strength | T1241E
with no effect | S1242E
with no effect | S1238E;S1242E

Variants of: B3
Details: with scrib_human SCRIB
Remark: another data set of the same source
Target sequence in this assay (Q14160 whole entry): as above

effect of a mutation on the interaction | Variant
increasing interaction strength | S1242E
disrupting interaction strength | S1238E

Variants of: B4
Details: with scrib_human SCRIB
Target sequence in this assay (Q14160 whole entry): as above

effect of a mutation on the interaction | Variant
disrupting interaction strength | MSSPPPARSGFYRQEVTKTAWEVRAVYRDLQPVGSGAYGAVCSAVDGRTGAKVAIKKLYRPFQSELFAKRAYRELRLLKHMRHENVIGLLDVFTPDETLDDFTDFYLVMPFMGTDLGKLMKHEKLGEDRIQFLVYQMLKGLRYIHAAGIIHRDLKPGNLAVNEDCELKILDFGLARQADSEMTGYVVTRWYRAPEVILNWMRYTQTVDIWSVGCIMAEMITGKTLFKGSDHLDQLKEIMKVTGTPPAEFVQRLQSDEAKNYMKGLPELEKKDFASILTNASPLAVNLLEKMLVLDAEQRVTAGEALAHPYFESLHDTEDEPQVQKYDDSFDDVDRTLDEWKRVTYKEVLSFKPPRQLGARVSKEEPL [T365E]

Variants of: B4
Details: with dlg1_human DLG1, Q12959
Target sequence in this assay (Q12959 whole entry, looked up): as the sequence (Q12959 whole entry, looked up) above

effect of a mutation on the interaction | Variant
disrupting interaction strength | MSSPPPARSGFYRQEVTKTAWEVRAVYRDLQPVGSGAYGAVCSAVDGRTGAKVAIKKLYRPFQSELFAKRAYRELRLLKHMRHENVIGLLDVFTPDETLDDFTDFYLVMPFMGTDLGKLMKHEKLGEDRIQFLVYQMLKGLRYIHAAGIIHRDLKPGNLAVNEDCELKILDFGLARQADSEMTGYVVTRWYRAPEVILNWMRYTQTVDIWSVGCIMAEMITGKTLFKGSDHLDQLKEIMKVTGTPPAEFVQRLQSDEAKNYMKGLPELEKKDFASILTNASPLAVNLLEKMLVLDAEQRVTAGEALAHPYFESLHDTEDEPQVQKYDDSFDDVDRTLDEWKRVTYKEVLSFKPPRQLGARVSKEEPL [T365E]
